Source: US20120301394A1 (published 2012)

T1: Recombinant mouse MMR (R&D systems) (mouse, UniProt Q61830 20-1388)
T1 construct: Bought recombinant extracellular portion of mouse MMR with a C-terminal His tag; It was immobilized on the CM5 chip for SPR and coated on plates for PE-ELISA; The SPR methods say only 'MMR'; also called mMMR; recombinant MMR
T1 sequence: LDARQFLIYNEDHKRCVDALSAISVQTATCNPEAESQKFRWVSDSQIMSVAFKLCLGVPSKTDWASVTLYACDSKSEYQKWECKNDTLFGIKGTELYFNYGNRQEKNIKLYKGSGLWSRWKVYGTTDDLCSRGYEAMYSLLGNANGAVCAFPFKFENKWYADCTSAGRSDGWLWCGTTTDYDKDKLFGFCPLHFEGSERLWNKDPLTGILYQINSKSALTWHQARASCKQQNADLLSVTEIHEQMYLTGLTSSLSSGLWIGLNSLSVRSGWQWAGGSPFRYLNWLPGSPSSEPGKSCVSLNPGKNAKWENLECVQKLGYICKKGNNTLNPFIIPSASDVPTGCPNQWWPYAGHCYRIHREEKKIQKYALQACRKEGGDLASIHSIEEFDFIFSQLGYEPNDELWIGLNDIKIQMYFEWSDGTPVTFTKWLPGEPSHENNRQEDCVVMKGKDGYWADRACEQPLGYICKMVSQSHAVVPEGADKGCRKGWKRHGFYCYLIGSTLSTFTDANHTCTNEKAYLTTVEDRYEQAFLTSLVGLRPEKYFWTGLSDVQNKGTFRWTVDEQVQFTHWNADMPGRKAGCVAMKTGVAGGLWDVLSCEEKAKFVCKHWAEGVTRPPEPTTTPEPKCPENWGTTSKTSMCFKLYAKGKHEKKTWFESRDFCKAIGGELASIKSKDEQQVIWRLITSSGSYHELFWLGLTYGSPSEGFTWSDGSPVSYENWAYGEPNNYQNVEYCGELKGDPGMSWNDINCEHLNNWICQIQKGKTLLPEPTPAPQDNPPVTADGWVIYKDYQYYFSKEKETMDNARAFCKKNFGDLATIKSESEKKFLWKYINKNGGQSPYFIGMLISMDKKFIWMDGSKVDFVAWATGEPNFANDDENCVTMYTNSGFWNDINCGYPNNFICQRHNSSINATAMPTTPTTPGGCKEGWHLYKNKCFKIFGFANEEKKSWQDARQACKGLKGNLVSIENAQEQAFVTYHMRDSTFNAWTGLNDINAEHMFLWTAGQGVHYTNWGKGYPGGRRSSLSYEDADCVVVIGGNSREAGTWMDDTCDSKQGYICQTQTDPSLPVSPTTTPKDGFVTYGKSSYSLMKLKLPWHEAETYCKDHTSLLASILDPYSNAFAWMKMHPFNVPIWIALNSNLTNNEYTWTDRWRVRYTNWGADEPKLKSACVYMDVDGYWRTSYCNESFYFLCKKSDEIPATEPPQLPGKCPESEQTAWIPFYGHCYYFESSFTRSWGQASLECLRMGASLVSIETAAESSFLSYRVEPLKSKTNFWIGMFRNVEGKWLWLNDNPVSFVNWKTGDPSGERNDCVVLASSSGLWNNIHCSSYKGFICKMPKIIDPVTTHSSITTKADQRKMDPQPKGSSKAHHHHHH

T2: Recombinant human MMR (R&D systems) (human, UniProt P22897 19-1383)
T2 construct: Bought protein (R&D Systems #2534) coated on ELISA plates; also called hMMR; MRC1
T2 sequence: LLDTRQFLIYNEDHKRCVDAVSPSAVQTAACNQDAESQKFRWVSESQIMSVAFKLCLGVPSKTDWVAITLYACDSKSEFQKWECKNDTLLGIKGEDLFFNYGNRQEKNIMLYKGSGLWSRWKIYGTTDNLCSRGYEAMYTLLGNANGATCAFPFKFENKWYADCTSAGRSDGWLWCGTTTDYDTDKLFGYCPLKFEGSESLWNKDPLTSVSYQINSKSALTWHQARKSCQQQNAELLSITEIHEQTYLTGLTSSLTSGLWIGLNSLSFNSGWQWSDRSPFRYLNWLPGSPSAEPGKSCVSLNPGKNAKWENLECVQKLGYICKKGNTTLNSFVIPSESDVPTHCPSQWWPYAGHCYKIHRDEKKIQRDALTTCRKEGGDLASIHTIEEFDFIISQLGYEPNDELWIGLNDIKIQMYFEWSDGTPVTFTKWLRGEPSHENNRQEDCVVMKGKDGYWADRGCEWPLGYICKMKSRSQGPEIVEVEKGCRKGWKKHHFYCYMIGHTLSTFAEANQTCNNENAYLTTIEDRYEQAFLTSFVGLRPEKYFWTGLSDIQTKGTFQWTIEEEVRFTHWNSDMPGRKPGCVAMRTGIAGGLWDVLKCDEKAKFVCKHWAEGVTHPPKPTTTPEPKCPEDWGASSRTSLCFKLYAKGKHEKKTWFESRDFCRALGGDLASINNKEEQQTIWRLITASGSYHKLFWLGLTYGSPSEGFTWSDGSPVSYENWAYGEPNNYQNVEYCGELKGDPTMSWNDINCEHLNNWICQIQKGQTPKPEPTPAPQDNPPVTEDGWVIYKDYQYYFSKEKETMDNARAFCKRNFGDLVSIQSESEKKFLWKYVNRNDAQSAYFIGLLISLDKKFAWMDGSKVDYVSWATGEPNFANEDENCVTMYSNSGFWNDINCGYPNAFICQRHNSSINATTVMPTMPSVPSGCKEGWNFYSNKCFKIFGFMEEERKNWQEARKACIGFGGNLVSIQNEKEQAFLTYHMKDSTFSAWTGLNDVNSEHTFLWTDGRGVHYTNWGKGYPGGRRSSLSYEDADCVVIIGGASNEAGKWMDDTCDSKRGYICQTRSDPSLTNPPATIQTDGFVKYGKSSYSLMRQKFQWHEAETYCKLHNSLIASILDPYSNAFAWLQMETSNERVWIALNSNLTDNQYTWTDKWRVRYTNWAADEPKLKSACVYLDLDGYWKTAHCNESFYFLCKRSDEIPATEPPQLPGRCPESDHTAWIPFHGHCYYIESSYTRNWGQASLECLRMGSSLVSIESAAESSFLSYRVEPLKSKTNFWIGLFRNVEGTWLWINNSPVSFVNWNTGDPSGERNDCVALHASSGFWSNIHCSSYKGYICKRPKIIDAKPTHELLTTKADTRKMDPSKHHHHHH

B1: bivalent anti-MMR Nanobody 1 with llama IgG2 hinge linker (VHH)
chain: QVQLQESGGGLVQPGGSLRLSCAASGNIFSINAIGWYRQAPGKQRELVATITLSGSTNYADSVKGRFSISRDNAKNTVYLQMNSLKPEDTAVYYCNANTYSDSDVYGYWGQGTQVTVSSAHHSEDPSSKAPKAPMAQVQLQESGGGLVQPGGSLRLSCAASGNIFSINAIGWYRQAPGKQRELVATITLSGSTNYADSVKGRFSISRDNAKNTVYLQMNSLKPEDTAVYYCNANTYSDSDVYGYWGQGTQVTVSSHHHHHH
notes: Two copies of Nb clone 1 in one chain joined by the llama IgG2 hinge linker, with a C-terminal His tag; also called biv MMR linker 2 g2c; MMR biv g2c
B2: bivalent anti-MMR Nanobody 1 with human IgA hinge linker (VHH)
chain: QVQLQESGGGLVQPGGSLRLSCAASGNIFSINAIGWYRQAPGKQRELVATITLSGSTNYADSVKGRFSISRDNAKNTVYLQMNSLKPEDTAVYYCNANTYSDSDVYGYWGQGTQVTVSSSPSTPPTPSPSTPPASQVQLQESGGGLVQPGGSLRLSCAASGNIFSINAIGWYRQAPGKQRELVATITLSGSTNYADSVKGRFSISRDNAKNTVYLQMNSLKPEDTAVYYCNANTYSDSDVYGYWGQGTQVTVSSHHHHHH
notes: Two copies of Nb clone 1 in one chain joined by the human IgA hinge linker, with a C-terminal His tag; also called biv MMR linker 3 IgA; MMR biv IgA
B3: anti-MMR Nanobody clone 1 (VHH)
VHH: QVQLQESGGGLVQPGGSLRLSCAASGNIFSINAIGWYRQAPGKQRELVATITLSGSTNYADSVKGRFSISRDNAKNTVYLQMNSLKPEDTAVYYCNANTYSDSDVYGYWGQGTQVTVSS
notes: Monovalent alpaca VHH against mouse MMR; Alexa-fluor labelled for flow cytometry and immunofluorescence; also called Anti-MMR Nb1; anti-MMR Nb clone 1
B4: bivalent anti-MMR Nanobody 1 with (Gly4Ser)3 linker (VHH)
chain: QVQLQESGGGLVQPGGSLRLSCAASGNIFSINAIGWYRQAPGKQRELVATITLSGSTNYADSVKGRFSISRDNAKNTVYLQMNSLKPEDTAVYYCNANTYSDSDVYGYWGQGTQVTVSSGGGGSGGGGSGGGGSQVQLQESGGGLVQPGGSLRLSCAASGNIFSINAIGWYRQAPGKQRELVATITLSGSTNYADSVKGRFSISRDNAKNTVYLQMNSLKPEDTAVYYCNANTYSDSDVYGYWGQGTQVTVSSHHHHHH
notes: Two copies of Nb clone 1 in one chain joined by a (G4S)3 linker, with a C-terminal His tag; also called biv MMR linker 1 GS; MMR biv (Gly4Ser)3
B5: NbhMMRm11.5 (VHH)
VHH: QVQLQESGGGLVQPGGSLMLSCAASGNIFTINRMGWYRQAPGKQRELVAAITSGGNTNYADSVKGRFTISRDNAKNTVYLQMNSLKPEDTAVYYCNAAIVTMTSPYSDYWGQGTQVTVSS
notes: Tested as a periplasmic extract in PE-ELISA
B6: NbhMMRm15.43 (VHH)
VHH: QVQLQESGGTLVQPGGSLRLSCAASGSTFSINNMGWYRQAPGKQRELVAGITGGNTHYADSVKGRFTISRDNAKNTMYLQMNGLKPEDTAVYYCNANWGAYWGQGTQVTVSS
notes: as for B5
B7: NbhMMRm16.95 (VHH)
VHH: QVQLQESGGGLVQPGGSLGLSCAASGRIASISAMGWYRQAPGKQRELVAAITGSGRTNYADSVKGRFTISRDNAKNTVYLQMNSLKPEDTAVYYCNLLMVDYGLGLGTDYWGQGTQVTVSS
notes: as for B5
B8: anti-MMR Nanobody clone 3 (VHH)
VHH: QVQLQESGGGLVQAGGSLRLSCAASGRTFSRDAMGWFRQAPGKEREFVAGISWSGGSTYYADSVKGRFTISRDGAKNTVNLQMNSLKPEDTAVYYCAASSIYGSAVVDGLYDYWGQGTQVTVSS
notes: also called Anti-MMR Nb3; Nb clone 3
B9: NbhmMMRm7.67 (VHH)
VHH: QVQLQESGGGLVQAGGSLRLSCVDQGRTFSVNAMAWYRQAPGKQRELVASITSSGLDTQYAEGMKGRFTISKGNDKFSTYLQMNNLKPDDTAVYYCNAERWDNGMVYWGKGTQVTVSS
B10: NbhmMMRm26.70 (VHH)
VHH: QVQLQESGGGLVQPGGSLRLSCTASGFPFSSAPMSWVRQAPGKELEWVSYIGYTGTITDYANSVKGRFTISRDNAKNRLYLQMNSLKPEDTAVYFCAQGYARLIADSDLVRGQGTQVTVSS

How the values were obtained:
[1] = biological target: T1, Recombinant mouse MMR (R&D systems); assay: SPR on immobilized recombinant MMR
Protocol: (§1) Affinity analysis was performed using a BIAcore T100 (GE Healthcare) with HEPES-buffered saline running buffer (10 mM HEPES with 0.15 M NaCl, 3.4 mM EDTA and 0.005% surfactant P20 at pH 7.4). MRR was immobilized on a CM5 chip in acetate buffer 50 mM (pH 5.0), resulting in 2100 RU MMR coated on the chip. A second channel on the same chip was activated/deactivated in a similar way and served as a negative control. The MMR Nanobodies were used as analytes in eleven different concentrations, ranging from 1 to 2000 nM, at a flow rate of […]. Glycine-HCl 50 mM (pH 2.0) was used for elution. The kinetic and equilibrium parameters (kd, ka and KD) values were calculated from the combined sensogram of all concentrations using BIAcore T100 evaluation software 2.02 (GE Healthcare).
Nanobodies (Nb) were raised against the recombinant extracellular portion of MMR (α-MMR Nb), as described in the Materials and Methods (see also Example 9; Table 4). The binding characteristics of the monovalent anti-MMR nanobodies were compared using surface Plasmon resonance measurements (Table 5). […] Further, bivalent nanobodies were constructed by linking two anti-MMR nanobody 1 entities using (G₄S)₃ ([…]; SEQ ID NO:121), llama IgG2 hinge ([…]; SEQ ID NO:122) or human IgA hinge ([…] SEQ ID NO:123) linkers. […] As a negative control nanobody in all experiments, we consistently used α-BCII10 Nb, which is a binder of the β-lactamase BCII enzyme of Bacillus cereus.

[2] = biological target: T1, Recombinant mouse MMR (R&D systems); assay: SPR, BIAcore T100, MMR immobilized on CM5 chip, bivalent Nb as analyte
Protocol: as §1

[3] = biological target: T1, Recombinant mouse MMR (R&D systems); assay: SPR, BIAcore T100, MMR immobilized on CM5 chip, Nb as analyte
Protocol: as §1
Nanobodies (Nb) were raised against the recombinant extracellular portion of MMR (α-MMR Nb), as described in the Materials and Methods (see also Example 9; Table 4). The binding characteristics of the monovalent anti-MMR nanobodies were compared using surface Plasmon resonance measurements (Table 5). […] Further, bivalent nanobodies were constructed by linking two anti-MMR nanobody 1 entities using (G₄S)₃ ([…]; SEQ ID NO:121), llama IgG2 hinge ([…]; SEQ ID NO:122) or human IgA hinge ([…] SEQ ID NO:123) linkers. […]

[4] = biological target: T2, Recombinant human MMR (R&D systems); assay: PE-ELISA, periplasmic extract on coated human MMR, OD405 at least 3x over milk-blocking proteins
[5] = biological target: T2, Recombinant human MMR (R&D systems); assay: listed as a cross-reactive Nb; selection by PE-ELISA on human MMR (Example 26)
[6] = biological target: T1, Recombinant mouse MMR (R&D systems); assay: listed as a cross-reactive Nb; selection by PE-ELISA on mouse MMR (Example 26)

| Binder | fold higher avidity compared to the monovalent clone 1 nanobody [1] [fold] | Kd [2] [nM] | binding result [4] | other results |
| --- | --- | --- | --- | --- |
| B1 | 5 | 4.04 | – | – |
| B2 | 5 | 4.69 | – | – |
| B3 | – | – | – | fold higher apparent affinity compared to nanobody clone 3 [1]: 8 fold; Kd [3]: 23.1 nM |
| B4 | 5 | 4.22 | – | – |
| B5 | – | – | binds | – |
| B6 | – | – | binds | – |
| B7 | – | – | binds | – |
| B8 | – | – | – | Kd [3]: 191 nM |
| B9 | – | – | – | binding result [5]: binds |
| B10 | – | – | – | binding result [5]: binds; binding result [6]: binds |
